Test results published in US20240052042A1 (Novartis, published 2024).
Positions count from the first letter of the chain named.

T1: rNPR1-ANP complex (rat, UniProt P01160 124-151 (human entry), limits assumed)
T1 construct: rNPR1 antigen in the presence of ANP; also called rNPR1 + 100 nM ANP
T1 sequence: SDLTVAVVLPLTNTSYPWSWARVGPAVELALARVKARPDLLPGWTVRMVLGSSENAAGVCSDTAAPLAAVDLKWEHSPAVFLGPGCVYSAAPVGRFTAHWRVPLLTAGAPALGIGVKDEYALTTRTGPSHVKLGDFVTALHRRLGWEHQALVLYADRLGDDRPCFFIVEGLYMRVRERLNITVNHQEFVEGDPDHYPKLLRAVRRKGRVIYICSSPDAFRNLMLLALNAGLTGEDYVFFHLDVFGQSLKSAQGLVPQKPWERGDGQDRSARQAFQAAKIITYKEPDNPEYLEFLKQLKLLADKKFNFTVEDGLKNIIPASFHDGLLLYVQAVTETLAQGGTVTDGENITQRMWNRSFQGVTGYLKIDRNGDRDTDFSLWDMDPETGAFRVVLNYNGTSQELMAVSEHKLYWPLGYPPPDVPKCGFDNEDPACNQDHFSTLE
T1 sequence (peptide): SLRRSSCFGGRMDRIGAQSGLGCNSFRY

T2: hNPR1-ANP complex (human, UniProt P01160 124-151, limits assumed)
T2 construct: hNPR1 antigen in the presence of ANP; also called hNPR1 + 100 nM ANP
T2 sequence: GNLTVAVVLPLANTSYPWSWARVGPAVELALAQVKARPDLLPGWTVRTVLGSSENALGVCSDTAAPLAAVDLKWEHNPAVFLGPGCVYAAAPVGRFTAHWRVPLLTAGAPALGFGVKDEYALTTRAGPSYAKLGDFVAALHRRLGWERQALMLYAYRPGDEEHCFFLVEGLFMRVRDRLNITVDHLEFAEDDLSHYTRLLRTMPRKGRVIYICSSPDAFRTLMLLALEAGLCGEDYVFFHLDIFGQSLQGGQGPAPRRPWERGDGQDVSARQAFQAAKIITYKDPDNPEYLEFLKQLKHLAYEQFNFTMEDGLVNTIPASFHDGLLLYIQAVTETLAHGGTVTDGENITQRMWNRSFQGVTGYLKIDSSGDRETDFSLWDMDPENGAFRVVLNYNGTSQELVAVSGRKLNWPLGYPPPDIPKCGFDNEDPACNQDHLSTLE
T2 sequence (peptide): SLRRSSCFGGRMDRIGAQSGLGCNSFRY

T3: human NPR1 on CHO-K1 cells (human, UniProt P16066 33-1061)
T3 sequence: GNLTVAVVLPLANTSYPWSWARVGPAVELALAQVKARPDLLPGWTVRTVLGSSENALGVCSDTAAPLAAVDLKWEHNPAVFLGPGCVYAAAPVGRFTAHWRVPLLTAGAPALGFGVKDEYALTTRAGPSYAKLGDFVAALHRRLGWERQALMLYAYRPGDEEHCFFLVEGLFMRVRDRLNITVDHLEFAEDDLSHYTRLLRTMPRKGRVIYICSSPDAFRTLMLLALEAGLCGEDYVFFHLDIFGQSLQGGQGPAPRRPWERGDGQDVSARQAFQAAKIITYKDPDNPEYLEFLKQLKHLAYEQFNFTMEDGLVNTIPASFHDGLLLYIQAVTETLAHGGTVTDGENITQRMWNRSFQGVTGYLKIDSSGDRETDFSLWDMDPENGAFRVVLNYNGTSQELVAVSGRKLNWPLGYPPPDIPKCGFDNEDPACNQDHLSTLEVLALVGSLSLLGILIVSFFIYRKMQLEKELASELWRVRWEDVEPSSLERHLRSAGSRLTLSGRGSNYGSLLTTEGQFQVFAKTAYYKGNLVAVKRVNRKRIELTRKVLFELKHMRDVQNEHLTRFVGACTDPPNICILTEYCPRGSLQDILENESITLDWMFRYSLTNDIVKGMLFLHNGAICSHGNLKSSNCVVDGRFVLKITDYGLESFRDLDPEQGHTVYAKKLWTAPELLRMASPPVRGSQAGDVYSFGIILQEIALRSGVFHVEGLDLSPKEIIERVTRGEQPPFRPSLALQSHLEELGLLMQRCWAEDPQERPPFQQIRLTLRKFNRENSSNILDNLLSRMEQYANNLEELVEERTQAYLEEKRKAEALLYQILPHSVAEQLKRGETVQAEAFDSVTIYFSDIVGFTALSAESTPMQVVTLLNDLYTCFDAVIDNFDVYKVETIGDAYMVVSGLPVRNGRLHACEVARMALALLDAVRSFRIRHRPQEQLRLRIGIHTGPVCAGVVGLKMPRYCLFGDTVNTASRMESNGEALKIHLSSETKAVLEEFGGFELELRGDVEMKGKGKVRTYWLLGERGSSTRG

T4: human Natriuretic Peptide Receptor 1 (hNPR1) (human, UniProt P16066 33-473, limits assumed)
T4 construct: pannings used NPR1-hFc; also called NPR1-hFc
T4 sequence: T2 sequence

T5: rat NPR1 (rNPR1) (rat, UniProt P18910 29-469, limits assumed)
T5 construct: Soluble antigen
T5 sequence: T1 sequence

T6: human NPR1 on CHO-K1 cells in the presence of ANP (human, UniProt P01160 124-151)
T6 construct: also called hNPR1 CHO K1 + 100 nM ANP
T6 sequence: T3 sequence
T6 sequence (peptide): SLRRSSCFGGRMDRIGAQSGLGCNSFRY

B1: YY01 (FabCys format) (Fab, V domains shown)
VH: EVQLVESGGGLVQPGGSLRLSCAASGFTFSSYWISWVRQAPGKGLEWVANIKQSGSETYYVESVKGRFTISRDNAKNSLYLQMNSLRAEDTAVYYCARSLRRRSTEHAGFDVWGQGTLVTVSS
VL: DIQMTQSPSSLSASVGDRVTITCRASQGISNYLAWYQQKPGKVPKLLIYAASTLQSGVPSRFSGSGSGTDFTLTISSLQPEDVATYYCQQADKFPYTFGQGTKVEIK
notes: Monovalent FabCys
B2: YY07 (FabCys format) (Fab, V domains shown)
VH: EVQLVQSGAEVKKPGESLKISCKGSGYSFTSYWISWVRQMPGKGLEWMGIIYPGTSYTRYSPSFQGQVTISADKSISTAYLQWSSLKASDTAMYYCARGSLPGLLGFDHWGQGTLVTVSS
VL: QSVLTQPPSVSGAPGQRVTISCTGSSSNIGAGYDVHWYQQLPGTAPKLLIYGNSNRPNGVPDRFSGSKSGTSASLAITGLQAEDEADYYCQSYDSPTSSSVFGGGTKLTVL
notes: Monovalent FabCys
B3: YY05 (FabCys format) (Fab, V domains shown)
VH: B2 VH with S100A, L101V, P102A, L104Q
VL: B2 VL with N58S, D94Y, S95T, P96S, T97S, S98H, S99G, S100P
notes: Monovalent FabCys
B4: YY06 (FabCys format) (Fab, V domains shown)
VH: EVQLLESGGGLVQPGGSLRLSCAASGFTFSSYAISWVRQAPGKGLEWVSAISGSGGSTYYAESVKGRFTISRDNSKNTLYLQMNSLRAEDTAVYYCARPYLGDRRSYGFDHWGQGTLVTVSS
VL: QSALTQPASVSGSPGQSITISCTGTSSDVGSYNLVSWYQQHPGKAPKLMIYEGSKRPSGVSNRFSGSKSGNTASLTISGLQAEDEADYYCSSYGFHIVVVVFGGGTKLTVL
notes: Monovalent FabCys
B5: WW01 (IgG format) (antibody, V domains shown)
VH: QVQLLESGGGLVQPGGSLRLSCAASGFTFNTHYIHWVRQAPGKGLEWVSSISGSGSNTYYADSVKGRFTISRDNSKNTLYLQMNSLRAEDTAVYYCARERGYVYYHMFDPWGQGTLVTVSS
VL: DIVLTQSPATLSLSPGERATLSCRASQSITRNYLAWYQQKPGQAPRLLIYGASSRATGIPARFSGSGSGTDFTLTISSLEPEDFAVYYCQQHSMYPRTFGQGTKVEIKR
notes: also called WW01_LALA

Columns and labels:
rNPR1-ANP complex [1] = molecular target: T1, rNPR1-ANP complex; assay: FabCys affinity (Octet per Table 18 comment)
hNPR1-ANP complex [2] = molecular target: T2, hNPR1-ANP complex; assay: FabCys affinity (Octet per Table 18 comment)
[3] = molecular target: T3, human NPR1 on CHO-K1 cells; assay: cell-based or functional assay
rNPR1-ANP complex [4] = molecular target: T1, rNPR1-ANP complex; assay: FabCys, parental value by Octet (table comment), as in Table 14
hNPR1-ANP complex [5] = molecular target: T2, hNPR1-ANP complex; assay: as above
rNPR1-ANP complex [6] = molecular target: T1, rNPR1-ANP complex; assay: Octet, FabCys; comment: Heterogenous binding
hNPR1-ANP complex [7] = molecular target: T2, hNPR1-ANP complex; assay: Octet, FabCys; comment: Heterogenous binding
[8] = molecular target: T4, human Natriuretic Peptide Receptor 1 …; assay: FabCys affinity determination
hNPR1-ANP complex [9] = molecular target: T2, hNPR1-ANP complex; assay: FabCys affinity determination
[10] = molecular target: T4, human Natriuretic Peptide Receptor 1 …; assay: FabCys, parental value as in Table 14 (no method comment)
hNPR1-ANP complex [11] = molecular target: T2, hNPR1-ANP complex; assay: as above
rat NPR1 (rNPR1) [12] = molecular target: T5, rat NPR1 (rNPR1); assay: FabCys affinity (Octet per Table 18 comment)
[13] = molecular target: T4, human Natriuretic Peptide Receptor 1 …; assay: FabCys affinity (Octet per Table 18 comment)
rat NPR1 (rNPR1) [14] = molecular target: T5, rat NPR1 (rNPR1); assay: FabCys, parental value by Octet, assay limit reached (table comment), as in Table 14
rNPR1-ANP complex [15] = molecular target: T1, rNPR1-ANP complex; assay: as above
[16] = molecular target: T4, human Natriuretic Peptide Receptor 1 …; assay: as above
hNPR1-ANP complex [17] = molecular target: T2, hNPR1-ANP complex; assay: as above
rat NPR1 (rNPR1) [18] = molecular target: T5, rat NPR1 (rNPR1); assay: Octet, FabCys
rNPR1-ANP complex [19] = molecular target: T1, rNPR1-ANP complex; assay: Octet, FabCys
[20] = molecular target: T4, human Natriuretic Peptide Receptor 1 …; assay: Octet, FabCys
hNPR1-ANP complex [21] = molecular target: T2, hNPR1-ANP complex; assay: Octet, FabCys
rat NPR1 (rNPR1) [22] = molecular target: T5, rat NPR1 (rNPR1); assay: FabCys, parental value by Octet (table comment), as in Table 14
[23] = molecular target: T4, human Natriuretic Peptide Receptor 1 …; assay: as above
[24] = molecular target: T6, human NPR1 on CHO-K1 cells in the …; assay: flow cytometry (FL2-H) on hNPR1 CHO-K1 cells with saturating ANP, IgG titrated; control parental CHO-K1 [panel WW01]
[25] = molecular target: T3, human NPR1 on CHO-K1 cells; assay: flow cytometry, hNPR1 CHO-K1 cells, IgG
[26] = molecular target: T6, human NPR1 on CHO-K1 cells in the …; assay: flow cytometry, hNPR1 CHO-K1 cells, IgG
hNPR1-ANP complex [27] = molecular target: T2, hNPR1-ANP complex; assay: ELISA, IgG

Binder | Kd (rNPR1-ANP complex [1]) [nM] | Kd (hNPR1-ANP complex [2]) [nM] | cGMP conc [nM] at 1 µM FabCys, +0.075 nM ANP [3] [nM] | cGMP conc [nM] at 1 µM FabCys, without ANP [3] [nM] | Kd (rNPR1-ANP complex [4]) [nM] | Kd (hNPR1-ANP complex [5]) [nM] | Kd (rat NPR1 (rNPR1) [12]) [nM] | Kd [13] [nM] | further results
B1 | 14 | 16 | 46 | 15 | 14 | 16 |  |  | Kd (rNPR1-ANP complex [6]): 8.8 nM; Kd (hNPR1-ANP complex [7]): 26 nM
B2 |  |  | 88 | 77 |  |  |  |  | Kd [8]: 1.8 nM; Kd (hNPR1-ANP complex [9]): 590 nM; Kd [10]: 1.8 nM; Kd (hNPR1-ANP complex [11]): 590 nM
B3 | 16000 | 350 | 227 | 207 |  |  | 700 | 0.9 | Kd (rat NPR1 (rNPR1) [14]): 700 nM; Kd (rNPR1-ANP complex [15]): 16000 nM; Kd [16]: 0.9 nM; Kd (hNPR1-ANP complex [17]): 350 nM
B4 | 1400 | 1 | 75 | 20 | 1400 | 1 | 1600 | 0.5 | Kd (rat NPR1 (rNPR1) [18]): 100 nM; Kd (rNPR1-ANP complex [19]): 38 nM; Kd [20]: 0.62 nM; Kd (hNPR1-ANP complex [21]): 0.8 nM; Kd (rat NPR1 (rNPR1) [22]): 1600 nM; Kd [23]: 0.5 nM
B5 |  |  |  |  |  |  |  |  | EC50 (read off the curve) [24]: ~3 nM; flow cytometry S/BG at 2 µM IgG [25]: 19.9 S/BG; flow cytometry S/BG at 2 µM IgG [26]: 222 S/BG; EC50 (hNPR1-ANP complex [27]): 1 nM
